{
  "source": "the supplement of paper PMC11246515",
  "test": "total protein half-life in vivo (active degradation + dilution); higher = more stable protein",
  "key": {"[1]": {"details": "E. coli NCM3722 delta-clpP delta-lon delta-hslV, growth: N-lim chemostat, doubling time 6 h"}, "[2]": {"details": "wild type E. coli NCM3722, growth: C-lim chemostat, doubling time 3 h"}, "[3]": {"details": "wild type E. coli NCM3722, growth: C-lim chemostat, doubling time 12 h"}, "[4]": {"details": "wild type E. coli NCM3722, growth: N-lim chemostat, doubling time 12 h"}, "[5]": {"details": "E. coli NCM3722 delta-clpP, growth: N-lim chemostat, doubling time 6 h"}, "[6]": {"details": "E. coli NCM3722 delta-hslV, growth: N-lim chemostat, doubling time 6 h"}, "[7]": {"details": "E. coli NCM3722 delta-lon, growth: N-lim chemostat, doubling time 6 h"}, "[8]": {"details": "E. coli NCM3722 delta-smpB, growth: N-lim chemostat, doubling time 6 h"}, "[9]": {"details": "wild type E. coli NCM3722, growth: C-lim chemostat, doubling time 6 h"}, "[10]": {"details": "wild type E. coli NCM3722, growth: N-lim chemostat, doubling time 6 h"}, "[11]": {"details": "wild type E. coli NCM3722, growth: P-lim chemostat, doubling time 6 h"}, "[12]": {"details": "wild type E. coli NCM3722, growth: P-lim chemostat, doubling time 12 h"}},
  "note": "± gives the standard deviation of the averaged measurements.",
  "data": [
    {"sequence": "MNNHATVQSSAPVSAAPLLQVSGALIAIIALILAAAWLVKRLGFAPKRTGVNGLKISASASLGARERVVVVDVEDARLVLGVTAGQINLLHKLPPSAPTEEIPQTDFQSVMKNLLKRSGRS", "values": [
      {"measurement": "total protein half-life in vivo", "setting": "[1]", "result": "> 8", "unit": "h"},
      {"measurement": "total protein half-life in vivo", "setting": "[2]", "result": "> 4", "unit": "h"},
      {"measurement": "total protein half-life in vivo", "setting": "[3]", "result": 8.29, "unit": "h"},
      {"measurement": "total protein half-life in vivo", "setting": "[4]", "result": 1.64, "unit": "h"}
    ]},
    {"sequence": "MNNIAPQSPVMRRLTLQDNPAIARVIRQVSAEYGLTADKGYTVADPNLDELYQVYSQPGHAYWVVEYEGEVVGGGGIAPLTGSESDICELQKMYFLPAIRGKGLAKKLALMAMEQAREMGFKRCYLETTAFLKEAIALYEHLGFEHIDYALGCTGHVDCEVRMLREL", "values": [
      {"measurement": "total protein half-life in vivo", "setting": "[1]", "result": "4.53 ± 0.45", "unit": "h"},
      {"measurement": "total protein half-life in vivo", "setting": "[5]", "result": "3.93 ± 0.64", "unit": "h"},
      {"measurement": "total protein half-life in vivo", "setting": "[6]", "result": "3.54 ± 0.28", "unit": "h"},
      {"measurement": "total protein half-life in vivo", "setting": "[7]", "result": "3.77 ± 0.61", "unit": "h"},
      {"measurement": "total protein half-life in vivo", "setting": "[8]", "result": "3.89 ± 0.23", "unit": "h"},
      {"measurement": "total protein half-life in vivo", "setting": "[2]", "result": "2.95 ± 0.76", "unit": "h"},
      {"measurement": "total protein half-life in vivo", "setting": "[9]", "result": "5.11 ± 0.59", "unit": "h"},
      {"measurement": "total protein half-life in vivo", "setting": "[3]", "result": "6.43 ± 0.74", "unit": "h"},
      {"measurement": "total protein half-life in vivo", "setting": "[10]", "result": "4.37 ± 0.26", "unit": "h"},
      {"measurement": "total protein half-life in vivo", "setting": "[4]", "result": "7.32 ± 0.57", "unit": "h"},
      {"measurement": "total protein half-life in vivo", "setting": "[11]", "result": "5 ± 0.34", "unit": "h"},
      {"measurement": "total protein half-life in vivo", "setting": "[12]", "result": "10.6 ± 2.3", "unit": "h"}
    ]},
    {"sequence": "MNNIWWQTKGQGNVHLVLLHGWGLNAEVWRCIDEELSSHFTLHLVDLPGFGRSRGFGALSLADMAEAVLQQAPDKAIWLGWSLGGLVASQIALTHPERVQALVTVASSPCFSARDEWPGIKPDVLAGFQQQLSDDFQRTVERFLALQTMGTETARQDARALKKTVLALPMPEVDVLNGGLEILKTVDLRQPLQNVSMPFLRLYGYLDGLVPRKVVPMLDKLWPHSESYIFAKAAHAPFISHPAEFCHLLVALKQRV", "values": [
      {"measurement": "total protein half-life in vivo", "setting": "[1]", "result": "3.79 ± 0.6", "unit": "h"},
      {"measurement": "total protein half-life in vivo", "setting": "[5]", "result": "3.5 ± 0.15", "unit": "h"},
      {"measurement": "total protein half-life in vivo", "setting": "[6]", "result": 3.33, "unit": "h"},
      {"measurement": "total protein half-life in vivo", "setting": "[7]", "result": "3.66 ± 0.1", "unit": "h"},
      {"measurement": "total protein half-life in vivo", "setting": "[8]", "result": "4.85 ± 1.8", "unit": "h"},
      {"measurement": "total protein half-life in vivo", "setting": "[2]", "result": "3.39 ± 0.45", "unit": "h"},
      {"measurement": "total protein half-life in vivo", "setting": "[9]", "result": "5.41 ± 0.43", "unit": "h"},
      {"measurement": "total protein half-life in vivo", "setting": "[3]", "result": "12.1 ± 4.7", "unit": "h"},
      {"measurement": "total protein half-life in vivo", "setting": "[10]", "result": "3.63 ± 0.25", "unit": "h"},
      {"measurement": "total protein half-life in vivo", "setting": "[4]", "result": "6.93 ± 1.4", "unit": "h"},
      {"measurement": "total protein half-life in vivo", "setting": "[11]", "result": "5.93 ± 0.25", "unit": "h"}
    ]},
    {"sequence": "MNNKGSGLTPAQALDKLDALYEQSVVALRNAIGNYITSGELPDENARKQGLFVYPSLTVTWDGSTTNPPKTRAFGRFTHAGSYTTTITRPTLFRSYLNEQLTLLYQDYGAHISVQPSQHEIPYPYVIDGSELTLDRSMSAGLTRYFPTTELAQIGDETADGIYHPTEFSPLSHFDARRVDFSLARLRHYTGTPVEHFQPFVLFTNYTRYVDEFVRWGCSQILDPDSPYIALSCAGGNWITAETEAPEEAISDLAWKKHQMPAWHLITADGQGITLVNIGVGPSNAKTICDHLAVLRPDVWLMIGHCGGLRESQAIGDYVLAHAYLRDDHVLDAVLPPDIPIPSIAEVQRALYDATKLVSGRPGEEVKQRLRTGTVVTTDDRNWELRYSASALRFNLSRAVAIDMESATIAAQGYRFRVPYGTLLCVSDKPLHGEIKLPGQANRFYEGAISEHLQIGIRAIDLLRAEGDRLHSRKLRTFNEPPFR [P0AE12]", "values": [
      {"measurement": "total protein half-life in vivo", "setting": "[1]", "result": "6.26 ± 1.5", "unit": "h"},
      {"measurement": "total protein half-life in vivo", "setting": "[5]", "result": "5.49 ± 1", "unit": "h"},
      {"measurement": "total protein half-life in vivo", "setting": "[6]", "result": "5.31 ± 0.55", "unit": "h"},
      {"measurement": "total protein half-life in vivo", "setting": "[7]", "result": "4.76 ± 0.66", "unit": "h"},
      {"measurement": "total protein half-life in vivo", "setting": "[8]", "result": "4.37 ± 0.083", "unit": "h"},
      {"measurement": "total protein half-life in vivo", "setting": "[2]", "result": "3.24 ± 0.42", "unit": "h"},
      {"measurement": "total protein half-life in vivo", "setting": "[9]", "result": "6.34 ± 0.73", "unit": "h"},
      {"measurement": "total protein half-life in vivo", "setting": "[3]", "result": "10.6 ± 0.36", "unit": "h"},
      {"measurement": "total protein half-life in vivo", "setting": "[10]", "result": "4.51 ± 0.26", "unit": "h"},
      {"measurement": "total protein half-life in vivo", "setting": "[4]", "result": "8.24 ± 1.3", "unit": "h"},
      {"measurement": "total protein half-life in vivo", "setting": "[11]", "result": "6.19 ± 0.32", "unit": "h"}
    ]},
    {"sequence": "MNNLPLLNDLRVFMLVARRAGFAAVAEELGVSPAFVSKRIALLEQTLNVVLLHRTTRRVTITEEGERIYEWAQRILQDVGQMMDELSDVRQVPQGMLRIISSFGFGRQVVAPALLALAKAYPQLELRFDVEDRLVDLVNEGVDLDIRIGDDIAPNLIARKLATNYRILCASPEFIAQHGAPKHLTDLSALPCLVIKERDHPFGVWQLRNKEGPHAIKVTGPLSSNHGEIVHQWCLDGQGIALRSWWDVSENIASGHLVQVLPEYYQPANVWAVYVSRLATSAKVRITVEFLRQYFAEHYPNFSLEHA", "values": [
      {"measurement": "total protein half-life in vivo", "setting": "[1]", "result": "5.43 ± 0.67", "unit": "h"},
      {"measurement": "total protein half-life in vivo", "setting": "[5]", "result": "1.82 ± 0.43", "unit": "h"},
      {"measurement": "total protein half-life in vivo", "setting": "[8]", "result": 1.16, "unit": "h"},
      {"measurement": "total protein half-life in vivo", "setting": "[2]", "result": "0.948 ± 0.17", "unit": "h"},
      {"measurement": "total protein half-life in vivo", "setting": "[9]", "result": "2.24 ± 0.21", "unit": "h"},
      {"measurement": "total protein half-life in vivo", "setting": "[3]", "result": "3.54 ± 0.1", "unit": "h"},
      {"measurement": "total protein half-life in vivo", "setting": "[11]", "result": 0.535, "unit": "h"}
    ]},
    {"sequence": "MNNLPVVRSPWRIVILLLGFTFLYAPMLMLVIYSFNSSKLVTVWAGWSTRWYGELLRDDAMMSAVGLSLTIAACAATAAAILGTIAAVVLVRFGRFRGSNGFAFMITAPLVMPDVITGLSLLLLFVALAHAIGWPADRGMLTIWLAHVTFCTAYVAVVISSRLRELDRSIEEAAMDLGATPLKVFFVITLPMIMPAIISGWLLAFTLSLDDLVIASFVSGPGATTLPMLVFSSVRMGVNPEINALATLILGAVGIVGFIAWYLMARAEKQRIRDIQRARRG [P0AFL1]", "values": [
      {"measurement": "total protein half-life in vivo", "setting": "[1]", "result": 5.96, "unit": "h"},
      {"measurement": "total protein half-life in vivo", "setting": "[4]", "result": "> 16", "unit": "h"},
      {"measurement": "total protein half-life in vivo", "setting": "[12]", "result": 10.3, "unit": "h"}
    ]},
    {"sequence": "MNNMFEPPKNYNEMLPKLHKATFLNTLIYCILLVIYEYIPLITLPTKYVPPIKDHESFINWALSFGILPCAFAIFAYLISGALDLHNNAAKLLRVRYLWDKHLIIKPLSRRAGVNRKLNKDEAHNVMSNLYYPEVRKIEDKHYIELFWNKVYYFWIFFEFSIIALISFLIIFFCKQMDIFHVEGSLLSLFFFVILSFSVSGIIFALTVKPRTESQVGKIPDDKIKEFFTKNNIN", "values": [
      {"measurement": "total protein half-life in vivo", "setting": "[1]", "result": 5.36, "unit": "h"},
      {"measurement": "total protein half-life in vivo", "setting": "[6]", "result": 4.62, "unit": "h"},
      {"measurement": "total protein half-life in vivo", "setting": "[8]", "result": "5.48 ± 0.069", "unit": "h"},
      {"measurement": "total protein half-life in vivo", "setting": "[2]", "result": 2.94, "unit": "h"},
      {"measurement": "total protein half-life in vivo", "setting": "[9]", "result": "4.97 ± 0.76", "unit": "h"},
      {"measurement": "total protein half-life in vivo", "setting": "[3]", "result": "10.6 ± 0.83", "unit": "h"},
      {"measurement": "total protein half-life in vivo", "setting": "[10]", "result": 5.04, "unit": "h"},
      {"measurement": "total protein half-life in vivo", "setting": "[4]", "result": 7.86, "unit": "h"},
      {"measurement": "total protein half-life in vivo", "setting": "[11]", "result": "5.56 ± 0.71", "unit": "h"},
      {"measurement": "total protein half-life in vivo", "setting": "[12]", "result": "11.3 ± 1.6", "unit": "h"}
    ]}
  ]
}
